T1: HLA DQA1*0101:DQB1*0501
T1 chain 1: not shown
T1 chain 2: not shown

T2: HLA DQA1*0102:DQB1*0602, P01920
T2 chain 1: not shown
T2 chain 2: not shown


Columns and labels:
[1] = target: T1, HLA DQA1*0101:DQB1*0501; experiment: REVEAL class II binding assay (cell-free)
[2] = target: T2, HLA DQA1*0102:DQB1*0602, P01920; experiment: REVEAL class II binding assay (cell-free)

Row | Binder | REVEAL 0 hrs (% of positive control signal) [1] | REVEAL 24 hours (% of positive control signal) [1] | Stability index [1] | REVEAL 0 hrs (% of positive control signal) [2] | REVEAL 24 hours (% of positive control signal) [2] | Stability index [2]
1 | VGKMIGGIGRFYIQM (modifications not checked) [Peptide #5 (Common CP sequence)] | 43.6 | 13.9 | 6.4 | 77.3 | 52.3 | 33
2 | RELILYDKEEMRRIWRQANNG (modifications not checked) [Peptide #2 (X181 NP fragment)] | 1.1 | 1 |  |  | 0.5 | 
3 | ALNRGSGSGIITSDA (modifications not checked) [Peptide #17 (Hemagglutinin fragment)] | 0 | 0 | 0 | 0 | 0 | 0
4 | ALSRGFGSGIITSNA (modifications not checked) [Peptide #18 (Hemagglutinin fragment)] | 0 | 0 | 0 | 0 | 0 | 0
5 | AMERNAGSGIIISDT (modifications not checked) [Peptide #16 (Hemagglutinin fragment)] | 0.1 | 0.1 | 0.1 | 0 | 0 | 0
6 | IDPFKLLQNSQVVSL (modifications not checked) [Peptide #8 (Common CP sequence)] | 0 | 0 | 0 | 0.1 | 0.1 | 0.1
7 | SGAAGAAVKGVGTMV (modifications not checked) [Peptide #6 (Common CP sequence)] | 0 | 0 | 0 | 0.1 | 0.1 | 0.1
8 | RELILYDKEEIRRIWRQANNG (modifications not checked) [Peptide #1 (X179-A NP fragment)] | 27.8 | 7.4 |  | 24.4 | 16.9 | 11.1
9 | LTVAAWSVKTSPLNM (modifications not checked) [Peptide #13 (Reverse of #10)] | 0.3 | 0.3 | 0.4 | 0.9 | 0.4 | 0.2
10 | LILYDKEEMRRIWRQ (modifications not checked) [Peptide #4 (X181 NP fragment)] | 0.1 | 0.1 | 0.1 | 0.5 | 0.4 | 0.6
11 | EKATNPIVPSFDMSN (modifications not checked) [Peptide #7 (Common CP sequence)] | 0 | 0 | 0 | 0 | 0 | 0

Reference: patent publication US20190184007A1
